Measurements as given in IntAct's records for PubMed 31515488.

B1: Elongin-A2 (Homo sapiens), Q8IYF1 (parent)
chain: MAAGSTTLHAVEKLQVRLATKTEPKKLEKYLQKLSALPMTADILAETGIRKTVKRLRKHQHVGDFARDLAARWKKLVLVDRNTRPGPQDPEESASRQRFGEALQDQEKAWGFPENATAPRSPSHSPEHRRTARRTPPGQQRPHPRSHSREPRAERKCPRIAPADSGRYRASPTRTAPLRMPEGPEPAAPGKQPGRGHTHAAQGGPLLCPGCQGQPQGKAVVSHSKGHKSSRQEKRPLCAQGDWHSPTLIREKSCGACLREETPRMPSWASARDRQPSDFKTDKEGGQAGSGQRVPALEEAPDSHQKRPQHSHSNKKRPSLDGRDPGNGTHGLSPEEKEQLSNDRETQEGKPPTAHLDRTSVSSLSEVEEVDMAEEFEQPTLSCEKYLTYDQLRKQKKKTGKSATTALGDKQRKANESKGTRESWDSAKKLPPVQESQSERLQAAGADSAGPKTVPSHVFSELWDLSEAWMQANYDPLSDSDSMTSQAKPEALSSPKFREEAAFPGRRVNAKMPVYSGSRPACQLQVPTLRQQCAQVLRNNPDALSDVGEVPYWVLEPVLEGWRPDQLYRRKKDNHALVRETDELRRNHCFQDFKEEKPQENKTWREQYLRLPDAPEQRLRVMTTNIRSARGNNPNGREAKMICFKSVAKTPYDTSRRQEKSAGDADPENGEIKPASKPAGSSHTPSSQSSSGGGRDSSSSILRWLPEKRANPCLSSSNEHAAPAAKTRKQAAKKVAPLMAKAIRDYKRRFSRR
B2: Protein unc-50 homolog (Homo sapiens), Q53HI1 (parent)
chain: MLPSTSVNSLVQGNGVLNSRDAARHTAGAKRYKYLRRLFRFRQMDFEFAAWQMLYLFTSPQRVYRNFHYRKQTKDQWARDDPAFLVLLSIWLCVSTIGFGFVLDMGFFETIKLLLWVVLIDCVGVGLLIATLMWFISNKYLVKRQSRDYDVEWGYAFDVHLNAFYPLLVILHFIQLFFINHVILTDTFIGYLVGNTLWLVAVGYYIYVTFLGYSALPFLKNTVILLYPFAPLILLYGLSLALGWNFTHTLCSFYKYRVK
partner: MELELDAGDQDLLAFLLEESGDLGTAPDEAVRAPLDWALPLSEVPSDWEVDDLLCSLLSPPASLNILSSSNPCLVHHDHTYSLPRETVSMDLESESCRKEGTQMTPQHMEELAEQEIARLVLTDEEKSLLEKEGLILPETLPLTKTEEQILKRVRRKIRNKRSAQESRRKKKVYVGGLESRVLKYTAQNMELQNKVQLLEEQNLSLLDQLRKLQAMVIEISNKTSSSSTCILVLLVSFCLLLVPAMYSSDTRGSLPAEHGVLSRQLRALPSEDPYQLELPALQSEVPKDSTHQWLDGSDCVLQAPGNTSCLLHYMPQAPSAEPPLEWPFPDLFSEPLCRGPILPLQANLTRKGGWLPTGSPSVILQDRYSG
B3: Myogenin (Homo sapiens), P15173 (parent)
chain: MELYETSPYFYQEPRFYDGENYLPVHLQGFEPPGYERTELTLSPEAPGPLEDKGLGTPEHCPGQCLPWACKVCKRKSVSVDRRRAATLREKRRLKKVNEAFEALKRSTLLNPNQRLPKVEILRSAIQYIERLQALLSSLNQEERDLRYRGGGGPQPGVPSECSSHSASCSPEWGSALEFSANPGDHLLTADPTDAHNLHSLTSIVDSITVEDVSVAFPDETMPN
partner: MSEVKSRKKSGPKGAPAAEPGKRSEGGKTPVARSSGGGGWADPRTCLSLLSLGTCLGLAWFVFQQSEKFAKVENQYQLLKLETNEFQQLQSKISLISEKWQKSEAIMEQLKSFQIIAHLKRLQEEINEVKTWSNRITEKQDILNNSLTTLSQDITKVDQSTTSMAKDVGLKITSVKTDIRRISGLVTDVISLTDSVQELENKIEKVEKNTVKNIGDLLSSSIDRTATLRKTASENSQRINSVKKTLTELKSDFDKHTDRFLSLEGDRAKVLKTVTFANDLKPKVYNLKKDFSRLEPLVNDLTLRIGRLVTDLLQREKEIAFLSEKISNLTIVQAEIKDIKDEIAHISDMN
B4: Paraneoplastic antigen Ma2 (Homo sapiens), Q9UL42 (parent)
chain: MALALLEDWCRIMSVDEQKSLMVTGIPADFEEAEIQEVLQETLKSLGRYRLLGKIFRKQENANAVLLELLEDTDVSAIPSEVQGKGGVWKVIFKTPNQDTEFLERLNLFLEKEGQTVSGMFRALGQEGVSPATVPCISPELLAHLLGQAMAHAPQPLLPMRYRKLRVFSGSAVPAPEEESFEVWLEQATEIVKEWPVTEAEKKRWLAESLRGPALDLMHIVQADNPSISVEECLEAFKQVFGSLESRRTAQVRYLKTYQEEGEKVSAYVLRLETLLRRAVEKRAIPRRIADQVRLEQVMAGATLNQMLWCRLRELKDQGPPPSFLELMKVIREEEEEEASFENESIEEPEERDGYGRWNHEGDD
B5: Cytosolic 5'-nucleotidase 1A (Homo sapiens), Q9BXI3 (parent)
chain: MEPGQPREPQEPREPGPGAETAAAPVWEEAKIFYDNLAPKKKPKSPKPQNAVTIAVSSRALFRMDEEQQIYTEQGVEEYVRYQLEHENEPFSPGPAFPFVKALEAVNRRLRELYPDSEDVFDIVLMTNNHAQVGVRLINSINHYDLFIERFCMTGGNSPICYLKAYHTNLYLSADAEKVREAIDEGIAAATIFSPSRDVVVSQSQLRVAFDGDAVLFSDESERIVKAHGLDRFFEHEKAHENKPLAQGPLKGFLEALGRLQKKFYSKGLRLECPIRTYLVTARSAASSGARALKTLRSWGLETDEALFLAGAPKGPLLEKIRPHIFFDDQMFHVAGAQEMGTVAAHVPYGVAQTPRRTAPAKQAPSAQ
B6: Notch homolog 2 N-terminal-like protein A (Homo sapiens), Q7Z3S9 (parent)
chain: MCVTYHNGTGYCKCPEGFLGEYCQHRDPCEKNRCQNGGTCVAQAMLGKATCRCASGFTGEDCQYSTSHPCFVSRPCLNGGTCHMLSRDTYECTCQVGFTGKECQWTDACLSHPCANGSTCTTVANQFSCKCLTGFTGQKCETDVNECDIPGHCQHGGTCLNLPGSYQCQCLQGFTGQYCDSLYVPCAPSPCVNGGTCRQTGDFTFECNCLPETVRRGTELWERDREVWNGKEHDEN
partner: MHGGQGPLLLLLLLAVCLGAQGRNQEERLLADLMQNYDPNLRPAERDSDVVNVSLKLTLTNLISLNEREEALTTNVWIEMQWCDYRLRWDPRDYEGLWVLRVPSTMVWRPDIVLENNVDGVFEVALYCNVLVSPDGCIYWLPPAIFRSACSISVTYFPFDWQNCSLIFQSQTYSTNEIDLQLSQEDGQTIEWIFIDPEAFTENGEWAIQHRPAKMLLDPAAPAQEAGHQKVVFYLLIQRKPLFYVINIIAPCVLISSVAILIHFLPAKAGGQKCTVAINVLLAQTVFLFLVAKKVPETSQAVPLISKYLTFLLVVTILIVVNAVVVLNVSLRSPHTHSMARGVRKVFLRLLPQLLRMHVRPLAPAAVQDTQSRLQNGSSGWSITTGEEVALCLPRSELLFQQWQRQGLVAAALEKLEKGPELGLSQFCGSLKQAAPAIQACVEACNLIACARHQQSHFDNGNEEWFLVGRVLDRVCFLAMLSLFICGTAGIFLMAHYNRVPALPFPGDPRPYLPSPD

Variants of: B1
Settings: with traf2_human TRAF2, Q12933
Chain of traf2_human TRAF2, Q12933 (Q12933 whole entry): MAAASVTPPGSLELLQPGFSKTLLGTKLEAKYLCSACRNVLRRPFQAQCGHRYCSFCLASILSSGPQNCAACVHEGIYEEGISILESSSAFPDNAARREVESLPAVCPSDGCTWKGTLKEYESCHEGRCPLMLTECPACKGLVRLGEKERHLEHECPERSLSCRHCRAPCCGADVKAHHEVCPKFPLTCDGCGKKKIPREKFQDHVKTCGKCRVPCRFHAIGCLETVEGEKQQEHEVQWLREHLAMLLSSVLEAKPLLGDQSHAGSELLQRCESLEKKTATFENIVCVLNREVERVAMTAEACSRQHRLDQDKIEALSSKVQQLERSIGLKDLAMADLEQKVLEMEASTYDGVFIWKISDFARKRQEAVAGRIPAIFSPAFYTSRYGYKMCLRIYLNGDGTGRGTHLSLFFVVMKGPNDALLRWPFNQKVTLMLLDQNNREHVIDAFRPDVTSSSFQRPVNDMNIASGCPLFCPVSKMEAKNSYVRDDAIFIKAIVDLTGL

effect of a mutation on the interaction	Variant
with no effect	D302H
with no effect	A403S
with no effect	T6S
with no effect	R498Q

Variants of: B2
Settings: with creb3_human CREB3, O43889

effect of a mutation on the interaction	Variant
with no effect	S214G

Variants of: B3
Settings: with ikip_human IKBIP

effect of a mutation on the interaction	Variant
disrupting interaction strength	A181T

Variants of: B4
Settings: with sdcb1_human SDCBP

effect of a mutation on the interaction	Variant
with no effect	E186K

Variants of: B4
Settings: with psa1_human PSMA1, P25786
Chain of psa1_human PSMA1, P25786 (P25786 whole entry): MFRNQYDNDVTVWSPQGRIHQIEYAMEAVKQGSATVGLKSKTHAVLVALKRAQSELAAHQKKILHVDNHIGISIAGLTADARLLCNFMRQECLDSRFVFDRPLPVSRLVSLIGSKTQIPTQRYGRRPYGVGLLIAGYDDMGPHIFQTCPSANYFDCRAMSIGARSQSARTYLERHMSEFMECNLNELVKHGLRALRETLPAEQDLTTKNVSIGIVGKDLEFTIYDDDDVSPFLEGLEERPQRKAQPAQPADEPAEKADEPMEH

effect of a mutation on the interaction	Variant
with no effect	E186K

Variants of: B5
Settings: with ntaq1_human NTAQ1, Q96HA8

effect of a mutation on the interaction	Variant
with no effect	Y34C

Variants of: B6
Settings: with achg_human CHRNG

effect of a mutation on the interaction	Variant
with no effect	R74Q
with no effect	A115T
